Our source for the Ka values is PMC3805550.

The target of this test is F-actin from chicken pectoral (skeletal) muscle (chicken) (UniProt P68139). The test can be described thus: co-sedimentation; 5 uM F-actin with 0.1-6 uM AS-Cdc8p, 20 mM MOPS pH 7.0, 150 mM NaCl, 2 mM MgCl2, 20 C, 60,000 rpm 30 min; pellets and supernatants on SDS-PAGE, densitometry; Hill equation fit, apparent constant (Kapp).

For the substance “AS-Cdc8p wildtype (Ala-Ser-Cdc8p, S. pombe tropomyosin with AlaSer at the N terminus) (natural protein)”, the Ka turned out to be 6.3e+06 M⁻¹.
